Key:
[1] = molecular target: T1, AtGRXS15 (reduced monomer) (Arabidopsis thaliana, UniProt Q8LBK6); assay: mBBr fluorescence titration of remaining free thiol; format: binding; settings: oxidant concentration for half-maximal protein thiol oxidation, no equilibrium or Michaelis constant; covalent (Cys91); 5 µM protein, 1 h, RT, 30 mM Tris-HCl pH 8.0, 200 mM NaCl
T1 construct: gene GRXS15; about 17 kDa on mPEG24 gel
T1 sequence (Q8LBK6 38-169): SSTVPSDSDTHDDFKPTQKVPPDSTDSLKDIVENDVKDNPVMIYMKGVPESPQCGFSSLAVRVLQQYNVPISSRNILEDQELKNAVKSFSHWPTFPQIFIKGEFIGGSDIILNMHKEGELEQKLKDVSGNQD

Cys91 = Cys91 (UniProt position 91, PESPQCGFSSL); assay: chemical modification; settings: room temperature; not stated (100 mM buffers, no added salt stated); 100 mM citrate buffers from pH 2.0 to 6.0; 100 mM phosphate buffers from pH 6.5 to 8.0; reduced (TCEP pre-reduced, desalted) apo monomer, 10 µM
Cys = settings: cited from earlier work
[2] = molecular target: the molecule itself; assay: non-reducing SDS-PAGE after oxidation and thiol alkylation (mPEG24); pre-reduced AtGRXS15 (13 µM) incubated with 5- or 10-fold molar excess of H2O2, DTTox, GSSG or GSNO for 2 h at RT; TCA precipitation, mPEG24 alkylation, non-reducing SDS-PAGE; dimer mainly with H2O2, to some extent with GSSG and GSNO, no oxidation with DTTox

N[C@@H](CCC(=O)N[C@@H](CSN=O)C(=O)NCC(=O)O)C(=O)O [GSNO]
S0.5 [1]: 21 ± 1 µM

Glutaredoxin S15, mitochondrial (AtGRXS15) (Arabidopsis thaliana)
pKa (Cys91): 4.0 ± 0.1

Glutaredoxin S16 (AtGRXS16) (Arabidopsis thaliana)
pKa (Cys): ~3.9

Monothiol glutaredoxin 5, mitochondrial (Grx5) (Saccharomyces cerevisiae)
pKa (Cys): ~5.0

B1: Arabidopsis thaliana mitochondrial glutaredoxin S15 (natural protein, UniProt Q8LBK6 38-169, looked up)
chain: T1 sequence (Q8LBK6 38-169)
notes: single cysteine Cys91 in the CGFS motif; no tag is named; The fractions kept after the last SEC step were the monomeric ones; The dimer seen after oxidation is covalent (intermolecular disulfide); also called AtGRXS15; GRXS15; source: E. coli C41(DE3) with pSBET helper plasmid, purified (ammonium sulfate, SEC, Q-sepharose, Superdex S75); pre-reduced with TCEP
stoichiometry N [2]: 2

Source: article PMC9854632, “Relationships between the Reversible Oxidation of the Single Cysteine Residue and the Physiological Function of the Mitochondrial Glutaredoxin S15 from Arabidopsis thaliana” (Antioxidants, 2022)
